The record followed here is IntAct's records for PubMed 28891236.

To fix the notation:
B1: Adhesion G protein-coupled receptor B2 (Homo sapiens), O60241 (parent)
chain: MENTGWMGKGHRMTPACPLLLSVILSLRLATAFDPAPSACSALASGVLYGAFSLQDLFPTIASGCSWTLENPDPTKYSLYLRFNRQEQVCAHFAPRLLPLDHYLVNFTCLRPSPEEAVAQAESEVGRPEEEEAEAAAGLELCSGSGPFTFLHFDKNFVQLCLSAEPSEAPRLLAPAALAFRFVEVLLINNNNSSQFTCGVLCRWSEECGRAAGRACGFAQPGCSCPGEAGAGSTTTTSPGPPAAHTLSNALVPGGPAPPAEADLHSGSSNDLFTTEMRYGEEPEEEPKVKTQWPRSADEPGLYMAQTGDPAAEEWSPWSVCSLTCGQGLQVRTRSCVSSPYGTLCSGPLRETRPCNNSATCPVHGVWEEWGSWSLCSRSCGRGSRSRMRTCVPPQHGGKACEGPELQTKLCSMAACPVEGQWLEWGPWGPCSTSCANGTQQRSRKCSVAGPAWATCTGALTDTRECSNLECPATDSKWGPWNAWSLCSKTCDTGWQRRFRMCQATGTQGYPCEGTGEEVKPCSEKRCPAFHEMCRDEYVMLMTWKKAAAGEIIYNKCPPNASGSASRRCLLSAQGVAYWGLPSFARCISHEYRYLYLSLREHLAKGQRMLAGEGMSQVVRSLQELLARRTYYSGDLLFSVDILRNVTDTFKRATYVPSADDVQRFFQVVSFMVDAENKEKWDDAQQVSPGSVHLLRVVEDFIHLVGDALKAFQSSLIVTDNLVISIQREPVSAVSSDITFPMRGRRGMKDWVRHSEDRLFLPKEVLSLSSPGKPATSGAAGSPGRGRGPGTVPPGPGHSHQRLLPADPDESSYFVIGAVLYRTLGLILPPPRPPLAVTSRVMTVTVRPPTQPPAEPLITVELSYIINGTTDPHCASWDYSRADASSGDWDTENCQTLETQAAHTRCQCQHLSTFAVLAQPPKDLTLELAGSPSVPLVIGCAVSCMALLTLLAIYAAFWRFIKSERSIILLNFCLSILASNILILVGQSRVLSKGVCTMTAAFLHFFFLSSFCWVLTEAWQSYLAVIGRMRTRLVRKRFLCLGWGLPALVVAVSVGFTRTKGYGTSSYCWLSLEGGLLYAFVGPAAVIVLVNMLIGIIVFNKLMARDGISDKSKKQRAGSERCPWASLLLPCSACGAVPSPLLSSASARNAMASLWSSCVVLPLLALTWMSAVLAMTDRRSVLFQALFAVFNSAQGFVITAVHCFLRREVQDVVKCQMGVCRADESEDSPDSCKNGQLQILSDFEKDVDLACQTVLFKEVNTCNPSTITGTLSRLSLDEDEEPKSCLVGPEGSLSFSPLPGNILVPMAASPGLGEPPPPQEANPVYMCGEGGLRQLDLTWLRPTEPGSEGDYMVLPRRTLSLQPGGGGGGGEDAPRARPEGTPRRAAKTVAHTEGYPSFLSVDHSGLGLGPAYGSLQNPYGMTFQPPPPTPSARQVPEPGERSRTMPRTVPGSTMKMGSLERKKLRYSDLDFEKVMHTRKRHSELYHELNQKFHTFDRYRSQSTAKREKRWSVSSGGAAERSVCTDKPSPGERPSLSQHRRHQSWSTFKSMTLGSLPPKPRERLTLHRAAAWEPTEPPDGDFQTEV

One test covers variants of B1. Particulars: with gnaz_human GNAZ.
Turning to R1465W, the “effect of a mutation on the interaction” value is “with no effect”.

The variants in a further test derive from B1. Particulars: with gnai1_human GNAI1, P63096.
gnai1_human GNAI1, P63096, sequence (P63096 whole entry): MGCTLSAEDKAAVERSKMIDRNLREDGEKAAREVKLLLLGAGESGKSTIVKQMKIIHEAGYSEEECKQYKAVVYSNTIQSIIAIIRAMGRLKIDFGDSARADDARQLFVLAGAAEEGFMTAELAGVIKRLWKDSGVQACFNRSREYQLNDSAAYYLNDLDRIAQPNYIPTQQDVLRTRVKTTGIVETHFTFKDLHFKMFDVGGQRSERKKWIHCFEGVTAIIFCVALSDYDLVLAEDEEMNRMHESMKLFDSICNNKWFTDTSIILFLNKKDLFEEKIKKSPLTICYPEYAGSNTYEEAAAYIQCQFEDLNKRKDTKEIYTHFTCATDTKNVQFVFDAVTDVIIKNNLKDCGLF
Regarding R1465W, the “effect of a mutation on the interaction” value is on record as “causing an interaction”.

The variants in a further test derive from B1. Particulars: with arrb2_rat Arrb2, P29067.
arrb2_rat Arrb2, P29067, sequence (P29067 whole entry): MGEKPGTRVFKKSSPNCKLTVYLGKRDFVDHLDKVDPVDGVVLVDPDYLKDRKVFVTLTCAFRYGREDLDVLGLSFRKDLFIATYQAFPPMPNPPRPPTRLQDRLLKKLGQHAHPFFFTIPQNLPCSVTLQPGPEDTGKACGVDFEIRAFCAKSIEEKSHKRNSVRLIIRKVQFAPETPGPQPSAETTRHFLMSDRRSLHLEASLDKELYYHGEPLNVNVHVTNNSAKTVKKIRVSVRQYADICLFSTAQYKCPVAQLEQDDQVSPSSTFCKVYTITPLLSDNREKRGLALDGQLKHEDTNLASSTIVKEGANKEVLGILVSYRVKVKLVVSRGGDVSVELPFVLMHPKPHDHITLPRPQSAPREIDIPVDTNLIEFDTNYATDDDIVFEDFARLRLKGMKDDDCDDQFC
With R1465W, the “effect of a mutation on the interaction” value is “with no effect”.

The variants in the next test derive from B1. Particulars: with sh3g2_human SH3GL2, Q99962.
sh3g2_human SH3GL2, Q99962, sequence (Q99962 whole entry): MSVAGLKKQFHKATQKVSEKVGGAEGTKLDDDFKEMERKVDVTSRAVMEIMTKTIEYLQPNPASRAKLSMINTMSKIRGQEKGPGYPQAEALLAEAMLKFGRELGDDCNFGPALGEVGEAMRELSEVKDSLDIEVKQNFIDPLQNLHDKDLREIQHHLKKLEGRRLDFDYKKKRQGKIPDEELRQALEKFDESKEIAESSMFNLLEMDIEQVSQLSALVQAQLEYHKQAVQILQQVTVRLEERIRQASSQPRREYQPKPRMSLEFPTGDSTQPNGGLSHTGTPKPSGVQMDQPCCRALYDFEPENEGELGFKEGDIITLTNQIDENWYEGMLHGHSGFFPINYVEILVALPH
Regarding R1465W, the “effect of a mutation on the interaction” value was “disrupting interaction strength”.
